Values joined by “and” are separate entries in the source; they are usually repeats but may differ in a detail not shown here. Equal values may be shown once.
What was measured:
[1] = target: chicken CALHM1Δct (residues 1-291, C-terminal Strep-II tag) (chicken); assay: cryo-EM 2D classification; 'top' views of 2D classification of the same nanodisc samples
[2] = target: chicken CALHM1Δct (residues 1-291, C-terminal Strep-II tag) (chicken); assay: cryo-EM structure; single-particle 3D reconstruction in lipid nanodiscs (soybean polar extract, MSP2N2); chicken: 20 mM Tris pH 8.0, 150 mM NaCl, 1 mM EDTA; human: 20 mM HEPES-NaOH pH 7.5, 200 mM NaCl, 1 mM EDTA
[3] = target: human CALHM1Δct-Ile109Trp (C-terminal Strep-II tag) (human) (UniProt Q8IU99); assay: cryo-EM structure; single-particle reconstruction in lipid nanodiscs, 20 mM HEPES-NaOH pH 7.5, 200 mM NaCl; with RuR (50 µM RuR, 1 mM EGTA; C8 and C1 maps) and RuR-free (1 mM EDTA)
[4] = target: killifish CALHM1Δct (killifish); assay: cryo-EM 2D classification; reanalysis of the publicly available dataset EMPIAR #10444
[5] = target: the molecule itself; assay: cryo-EM 2D classification; 'top' views of 2D classification of the same nanodisc samples
[6] = target: the molecule itself; assay: cryo-EM structure; single-particle 3D reconstruction in lipid nanodiscs (soybean polar extract, MSP2N2); chicken: 20 mM Tris pH 8.0, 150 mM NaCl, 1 mM EDTA; human: 20 mM HEPES-NaOH pH 7.5, 200 mM NaCl, 1 mM EDTA

For “chicken CALHM1Δct (residues 1-291, C-terminal Strep-II tag) (domain or fragment)”, the stoichiometry N [1] was 8 and 9 and the stoichiometry N [2] was 8.

For “human CALHM1Δct-Ile109Trp (C-terminal Strep-II tag) (from UniProt Q8IU99 1-303) (domain or fragment)”, the stoichiometry N [3] was 8.

With “killifish CALHM1Δct (domain or fragment)” the stoichiometry N [4] was 8 and 9.

B1: human CALHM1Δct (calcium homeostasis modulator 1, residues 1-303, C-terminal Strep-II tag) (domain or fragment, UniProt Q8IU99 1-303, looked up)
chain: MMDKFRMIFQFLQSNQESFMNGICGIMALASAQMYSAFDFNCPCLPGYNAAYSAGILLAPPLVLFLLGLVMNNNVSMLAEEWKRPPGRRAKDPAVLRYMFCSMAQRALIAPVVWVAVTLLDGKCFLCAFCTAVPVSALGNGSLAPGLPAPELARLLARVPCPEIYDGDWLLAREVAVRYLRCISQALGWSFVLLTTLLAFVVRSVRPCFTQAAFLKSKYWSHYIDIERKLFDETCTEHAKAFAKVCIQQFFEAMNHDLELGHTHGTLATAPASAAAPTTPDGAEEEREKLRGITDQGTMNRLL
notes: calcium homeostasis modulator 1 (CALHM1), human, residues 1-303 (C-terminal truncation; residues 303-346 follow the CTH in the whole protein); Octamer in the 3D reconstruction; nonameric particles were also seen in 2D classes; also called hCALHM1Δct; hCALHM1∆ct; source: HEK293S GnTI- cells, baculovirus infection; purified (Strep-Tactin, SEC), reconstituted into lipid nanodiscs (MSP2N2, soybean …)
B1 was tested, and the “stoichiometry N” value [5] was 9 and the “stoichiometry N” value [6] was 8.

From publication PMC10307800, “Structure of human CALHM1 reveals key locations for channel regulation and blockade by ruthenium red” (Nature Communications, 2023)
